According to PMC10881741, “Structural modifications toward improved lead-203/lead-212 peptide-based image-guided alpha-particle radiopharmaceutical therapies for neuroendocrine tumors” (European Journal of Nuclear Medicine and Molecular Imaging, 2023):
Where two headings read alike, the source gives them in different places.

Tests used:
[1] = In vivo biodistribution of ^203Pb-labeled peptides; parameters: species or system mice; conditions: female, athymic nu/nu, mouse, total radioactivity; for tissue uptake at 3 h / tissue uptake at 24 h / tissue uptake at 1 h / tissue uptake at 6 h: intravenous; for tissue to tissue ratio at 1 h / tissue to tissue ratio at 3 h / tissue to tissue ratio at 24 h: iv
Description: (§1) AR42J cells (5.0 × 10^6 cells/animal) were implanted subcutaneously on the left shoulder of female athymic nu/nu mice. […] Extra groups of mice were co-administered 37 kBq of ^203Pb-PSC-PEG2-TOC with DL-lysine (400 mg/kg) to determine the effect of amino acid on renal uptake of the radiopharmaceutical. Mice (n=3 per time point) were euthanized at 1, 3, and 24 h post-administration, and tumors and organs/tissues of interest were excised and weighed. The radioactivities of the samples were measured using the gamma counter.

AR42J tumor xenograft = experiment: In vivo biodistribution of ^203Pb-labeled peptides; parameters: species or system mice; conditions: DL-lysine 400 mg/kg, 3 h post-administration
Description: as §1

AR42J xenografts = experiment: SPECT/CT imaging with blocking by unlabeled peptide; assay type: in vivo, mice; conditions: 11.1 MBq, 30 nmol unlabeled PSC-PEG2-TOC
Description: Serial SPECT/CT imaging was conducted at 3 h and 24 h post-administration. The imaging study was performed at the University of Iowa Small Animal Imaging Core using an INVEON trimodality SPECT/positron emission tomography (PET)/CT scanner (Siemens Preclinical, Knoxville, TN) equipped with medium-energy (0.3 mm) pinhole collimators. Data were reconstructed using three-dimensional ordered-subsets expectation maximization (OSEM-3D) algorithm with eight iterations and six subsets. Post-reconstruction images were smoothed with a 3D Gaussian kernel. Post-imaging biodistribution of the radiotracer in mice was obtained at 30 h post-administration.

C[C@@H](O)[C@@H]1NC(=O)[C@H](CCCCN)NC(=O)[C@@H](Cc2c[nH]c3ccccc23)NC(=O)[C@H](Cc2ccc(O)cc2)NC(=O)[C@@H](NC(=O)[C@@H](Cc2ccccc2)NC(=O)CCOCCOCCNC(=O)CN2CCN(CC(=O)O)CCN(CC(N)=O)CCN(CC(=O)O)CC2)CSSC[C@@H](C(=O)N[C@H](CO)[C@@H](C)O)NC1=O [[^203Pb]Pb-PSC-PEG2-TOC, metal not drawn]
tissue uptake at 3 h ([1]; lung, 37 kBq, 3 h post-administration, read-out: Lung): 0.38 ± 0.07 %ID/g
tissue uptake at 24 h ([1]; lung, 37 kBq, 24 h post-administration, read-out: Lung): 1.46 ± 0.4 %ID/g
tissue uptake at 1 h ([1]; lung, 1 h, DL-lysine co-administered, read-out: Lung): 4.48 ± 4.47 %ID/g
tissue uptake at 3 h ([1]; lung, 3 h (Blocking): 10 nmol unlabeled PSC-PEG2-TOC co-administered, read-out: Lung): 0.26 ± 0.03 %ID/g
tissue uptake at 3 h ([1]; lung, 3 h, DL-lysine co-administered, read-out: Lung): 4.76 ± 3.19 %ID/g
tissue uptake at 6 h ([1]; lung, DL-lysine co-administered, read-out: Lung): 5.6 ± 1.27 %ID/g
tissue uptake at 24 h ([1]; lung, 24 h, DL-lysine co-administered, read-out: Lung): 1.11 ± 0.74 %ID/g
tissue uptake at 1 h ([1]; muscle, 37 kBq, 1 h post-administration, read-out: Muscle): 0.29 ± 0.27 %ID/g
tissue uptake at 3 h ([1]; muscle, 37 kBq, 3 h (No Lys), Table S4 study, read-out: Muscle): 0.17 ± 0.1 %ID/g
tissue uptake at 3 h ([1]; muscle, 37 kBq, 3 h post-administration, read-out: Muscle): 0.03 ± 0.01 %ID/g
tissue uptake at 24 h ([1]; muscle, 37 kBq, 24 h post-administration, read-out: Muscle): 0.02 ± 0.01 %ID/g
tissue uptake at 1 h ([1]; muscle, 1 h, DL-lysine co-administered, read-out: Muscle): 0.48 ± 0.26 %ID/g
tissue uptake at 3 h ([1]; muscle, 3 h (Blocking): 10 nmol unlabeled PSC-PEG2-TOC co-administered, read-out: Muscle): 0.06 ± 0.03 %ID/g
tissue uptake at 3 h ([1]; muscle, 3 h, DL-lysine co-administered, read-out: Muscle): 0.03 ± 0.01 %ID/g
tissue uptake at 6 h ([1]; muscle, DL-lysine co-administered, read-out: Muscle): 0.02 ± 0.02 %ID/g
tissue uptake at 24 h ([1]; muscle, 24 h, DL-lysine co-administered, read-out: Muscle): 0.01 ± 0.01 %ID/g
tissue uptake at 3 h ([1]; pancreas, 37 kBq, 3 h (No Lys), Table S4 study, read-out: Pancreas): 2.29 ± 1.63 %ID/g
tissue uptake at 1 h ([1]; pancreas, 1 h, DL-lysine co-administered, read-out: Pancreas): 5.04 ± 1.33 %ID/g
tissue uptake at 3 h ([1]; pancreas, 3 h (Blocking): 10 nmol unlabeled PSC-PEG2-TOC co-administered, read-out: Pancreas): 0.22 ± 0.04 %ID/g
tissue uptake at 3 h ([1]; pancreas, 3 h, DL-lysine co-administered, read-out: Pancreas): 2.1 ± 0.68 %ID/g
tissue uptake at 6 h ([1]; pancreas, DL-lysine co-administered, read-out: Pancreas): 0.75 ± 0.16 %ID/g
tissue uptake at 24 h ([1]; pancreas, 24 h, DL-lysine co-administered, read-out: Pancreas): 0.33 ± 0.08 %ID/g
tissue uptake at 1 h ([1]; small intestine, 37 kBq, 1 h post-administration, read-out: Small intestine): 1.34 ± 0.35 %ID/g
tissue uptake at 3 h ([1]; small intestine, 37 kBq, 3 h (No Lys), Table S4 study, read-out: Small intestine): 0.6 ± 0.11 %ID/g
tissue uptake at 3 h ([1]; small intestine, 37 kBq, 3 h post-administration, read-out: Small intestine): 1.85 ± 0.22 %ID/g
tissue uptake at 24 h ([1]; small intestine, 37 kBq, 24 h post-administration, read-out: Small intestine): 0.17 ± 0.01 %ID/g
tissue uptake at 1 h ([1]; small intestine, 1 h, DL-lysine co-administered, read-out: Small intestine): 1.9 ± 0.74 %ID/g
tissue uptake at 3 h ([1]; small intestine, 3 h (Blocking): 10 nmol unlabeled PSC-PEG2-TOC co-administered, read-out: Small intestine): 0.81 ± 0.71 %ID/g
tissue uptake at 3 h ([1]; small intestine, 3 h, DL-lysine co-administered, read-out: Small intestine): 2.37 ± 0.78 %ID/g
tissue uptake at 6 h ([1]; small intestine, DL-lysine co-administered, read-out: Small intestine): 0.94 ± 0.32 %ID/g
tissue uptake at 24 h ([1]; small intestine, 24 h, DL-lysine co-administered, read-out: Small intestine): 0.15 ± 0.02 %ID/g
tissue uptake at 1 h ([1]; spleen, 37 kBq, 1 h post-administration, read-out: Spleen): 1.21 ± 0.17 %ID/g
tissue uptake at 3 h ([1]; spleen, 37 kBq, 3 h (No Lys), Table S4 study, read-out: Spleen): 0.97 ± 0.47 %ID/g
tissue uptake at 3 h ([1]; spleen, 37 kBq, 3 h post-administration, read-out: Spleen): 0.54 ± 0.29 %ID/g
tissue uptake at 24 h ([1]; spleen, 37 kBq, 24 h post-administration, read-out: Spleen): 0.28 ± 0.07 %ID/g
tissue uptake at 1 h ([1]; spleen, 1 h, DL-lysine co-administered, read-out: Spleen): 1.04 ± 0.4 %ID/g
tissue uptake at 3 h ([1]; spleen, 3 h (Blocking): 10 nmol unlabeled PSC-PEG2-TOC co-administered, read-out: Spleen): 0.14 ± 0.07 %ID/g
tissue uptake at 3 h ([1]; spleen, 3 h, DL-lysine co-administered, read-out: Spleen): 0.81 ± 0.3 %ID/g
tissue uptake at 6 h ([1]; spleen, DL-lysine co-administered, read-out: Spleen): 0.73 ± 0.17 %ID/g
tissue uptake at 24 h ([1]; spleen, 24 h, DL-lysine co-administered, read-out: Spleen): 0.41 ± 0.28 %ID/g
tissue uptake at 3 h ([1]; stomach, 37 kBq, 3 h (No Lys), Table S4 study, read-out: Stomach): 0.95 ± 0.13 %ID/g
tissue uptake at 1 h ([1]; stomach, 1 h, DL-lysine co-administered, read-out: Stomach): 1.46 ± 0.32 %ID/g
tissue uptake at 3 h ([1]; stomach, 3 h (Blocking): 10 nmol unlabeled PSC-PEG2-TOC co-administered, read-out: Stomach): 0.36 ± 0.15 %ID/g
tissue uptake at 3 h ([1]; stomach, 3 h, DL-lysine co-administered, read-out: Stomach): 2.36 ± 0.44 %ID/g
tissue uptake at 6 h ([1]; stomach, DL-lysine co-administered, read-out: Stomach): 0.78 ± 0.2 %ID/g
tissue uptake at 24 h ([1]; stomach, 24 h, DL-lysine co-administered, read-out: Stomach): 0.3 ± 0.12 %ID/g
tissue uptake at 1 h ([1]; tumor, 37 kBq, 1 h post-administration, read-out: Tumor): 28.2 ± 8.63 %ID/g
tissue uptake at 3 h ([1]; tumor, 37 kBq, 3 h (No Lys), Table S4 study, read-out: Tumor): 19.8 ± 1.61 %ID/g
tissue uptake at 3 h ([1]; tumor, 37 kBq, 3 h post-administration, read-out: Tumor): 22.8 ± 2.8 %ID/g
tissue uptake at 24 h ([1]; tumor, 37 kBq, 24 h post-administration, read-out: Tumor): 12.2 ± 3.81 %ID/g
tissue uptake at 1 h ([1]; tumor, 1 h, DL-lysine co-administered, read-out: Tumor): 24.4 ± 1.85 %ID/g
tissue uptake at 3 h ([1]; tumor, 3 h (Blocking): 10 nmol unlabeled PSC-PEG2-TOC co-administered, read-out: Tumor): 2.41 ± 0.46 %ID/g
tissue uptake at 3 h ([1]; tumor, 3 h, DL-lysine co-administered, read-out: Tumor): 22.9 ± 1.09 %ID/g
tissue uptake at 6 h ([1]; tumor, DL-lysine co-administered, read-out: Tumor): 18.9 ± 1.86 %ID/g
tissue uptake at 24 h ([1]; tumor, 24 h, DL-lysine co-administered, read-out: Tumor): 7.44 ± 0.41 %ID/g
tissue to tissue ratio at 1 h ([1]; tumor/blood, 37 kBq, 1 h post-administration, read-out: Tumor/blood ratio): 78.3
tissue to tissue ratio at 3 h ([1]; tumor/blood, 37 kBq, 3 h post-administration, read-out: Tumor/blood ratio): 456
tissue to tissue ratio at 24 h ([1]; tumor/blood, 37 kBq, 24 h post-administration, read-out: Tumor/blood ratio): 610
tissue to tissue ratio at 1 h ([1]; tumor/kidneys, 37 kBq, 1 h post-administration, read-out: Tumor/kidneys ratio): 1.37
tissue to tissue ratio at 3 h ([1]; tumor/kidneys, 37 kBq, 3 h post-administration, read-out: Tumor/kidneys ratio): 1.44
tissue to tissue ratio at 24 h ([1]; tumor/kidneys, 37 kBq, 24 h post-administration, read-out: Tumor/kidneys ratio): 8.36
tissue to tissue ratio at 1 h ([1]; tumor/liver, 37 kBq, 1 h post-administration, read-out: Tumor/liver ratio): 78.3
tissue to tissue ratio at 3 h ([1]; tumor/liver, 37 kBq, 3 h post-administration, read-out: Tumor/liver ratio): 99.1
tissue to tissue ratio at 24 h ([1]; tumor/liver, 37 kBq, 24 h post-administration, read-out: Tumor/liver ratio): 153
tissue to tissue ratio at 1 h ([1]; tumor/lung, 37 kBq, 1 h post-administration, read-out: Tumor/lung ratio): 7.87
tissue to tissue ratio at 3 h ([1]; tumor/lung, 37 kBq, 3 h post-administration, read-out: Tumor/lung ratio): 60
tissue to tissue ratio at 24 h ([1]; tumor/lung, 37 kBq, 24 h post-administration, read-out: Tumor/lung ratio): 8.36
tissue to tissue ratio at 1 h ([1]; tumor/muscle, 37 kBq, 1 h post-administration, read-out: Tumor/muscle ratio): 97.2
tissue to tissue ratio at 3 h ([1]; tumor/muscle, 37 kBq, 3 h post-administration, read-out: Tumor/muscle ratio): 760
tissue to tissue ratio at 24 h ([1]; tumor/muscle, 37 kBq, 24 h post-administration, read-out: Tumor/muscle ratio): 610
Reduction of renal accumulation by co-administration of DL-lysine (AR42J tumor xenograft): 56%
Tumor uptake with co-administration of excessive unlabeled peptide (AR42J xenografts): almost completely blocked
